Starred links: 1 amine or outer side, 2 acyl side, 3 side chain; linkers in the order of their positions; H or OH if unused. Positions of bridges follow the written chain, without caps; N, C: chain ends. Non-standard residues stand in square brackets, D forms with d. Groups on a side chain read outwards from the residue. No end group written: not given here. *: point of attachment. dpeg = —[CO(CH2)O(CH2)2O(CH2)NH]— spacer, O=C(COCCOCN[*:1])[*:2]; C20 diacid = O=C(O)CCCCCCCCCCCCCCCCCCC(=O)*; C19 diacid = O=C(O)CCCCCCCCCCCCCCCCCC(=O)*; γGlu = O=C(O)[C@H](CCC(=O)[*:2])N[*:1]
T1: NPY2R
T1 sequence (P49146 1-381, species assumed, looked up): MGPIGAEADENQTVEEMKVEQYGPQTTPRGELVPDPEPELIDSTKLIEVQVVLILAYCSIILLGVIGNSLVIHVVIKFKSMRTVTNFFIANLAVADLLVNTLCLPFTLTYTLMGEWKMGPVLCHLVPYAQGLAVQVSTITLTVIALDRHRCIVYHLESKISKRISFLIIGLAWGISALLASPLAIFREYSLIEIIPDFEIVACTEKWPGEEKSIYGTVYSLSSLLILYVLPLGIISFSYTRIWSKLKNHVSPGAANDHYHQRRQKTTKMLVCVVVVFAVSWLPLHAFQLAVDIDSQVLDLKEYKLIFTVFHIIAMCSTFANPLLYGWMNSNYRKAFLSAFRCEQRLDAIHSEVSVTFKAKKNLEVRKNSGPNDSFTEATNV

T2: NPY5R
T2 sequence (Q15761 1-445, species assumed, looked up): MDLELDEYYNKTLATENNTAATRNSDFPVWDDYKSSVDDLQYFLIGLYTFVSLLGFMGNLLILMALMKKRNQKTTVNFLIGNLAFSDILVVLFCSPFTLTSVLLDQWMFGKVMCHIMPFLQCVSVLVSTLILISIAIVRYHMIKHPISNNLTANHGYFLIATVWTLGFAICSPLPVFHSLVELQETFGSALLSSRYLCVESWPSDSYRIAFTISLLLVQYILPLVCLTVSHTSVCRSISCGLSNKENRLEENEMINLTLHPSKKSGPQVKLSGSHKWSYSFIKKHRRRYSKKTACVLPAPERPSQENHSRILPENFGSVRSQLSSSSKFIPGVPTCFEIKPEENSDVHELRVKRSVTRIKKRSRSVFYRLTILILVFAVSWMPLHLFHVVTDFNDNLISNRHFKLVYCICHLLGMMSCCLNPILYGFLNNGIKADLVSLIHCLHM

B1: Compound A39 (peptide)
peptide: PKPEKPGK([γGlu-γGlu-C19 diacid])DASPKEWERYYKDLRHYLNWLTRQRF-NH2
modifications: lactam 16-20; N-terminus assumed
SMILES: CC(C)C[C@H](NC(=O)[C@H](CC(=O)O)NC(=O)[C@@H]1CCCCNC(=O)CC[C@H](NC(=O)[C@H](Cc2c[nH]c3ccccc23)NC(=O)[C@H](CCC(=O)O)NC(=O)[C@H](CCCCN)NC(=O)[C@@H]2CCCN2C(=O)[C@H](CO)NC(=O)[C@H](C)NC(=O)[C@H](CC(=O)O)NC(=O)[C@H](CCCCNC(=O)CC[C@H](NC(=O)CC[C@H](NC(=O)CCCCCCCCCCCCCCCCCC(=O)O)C(=O)O)C(=O)O)NC(=O)CNC(=O)[C@@H]2CCCN2C(=O)[C@H](CCCCN)NC(=O)[C@H](CCC(=O)O)NC(=O)[C@@H]2CCCN2C(=O)[C@H](CCCCN)NC(=O)[C@@H]2CCCN2)C(=O)N[C@@H](CCCNC(=N)N)C(=O)N[C@@H](Cc2ccc(O)cc2)C(=O)N[C@@H](Cc2ccc(O)cc2)C(=O)N1)C(=O)N[C@@H](CCCNC(=N)N)C(=O)N[C@@H](Cc1c[nH]cn1)C(=O)N[C@@H](Cc1ccc(O)cc1)C(=O)N[C@@H](CC(C)C)C(=O)N[C@@H](CC(N)=O)C(=O)N[C@@H](Cc1c[nH]c2ccccc12)C(=O)N[C@@H](CC(C)C)C(=O)N[C@H](C(=O)N[C@@H](CCCNC(=N)N)C(=O)N[C@@H](CCC(N)=O)C(=O)N[C@@H](CCCNC(=N)N)C(=O)N[C@@H](Cc1ccccc1)C(N)=O)[C@@H](C)O
B2: Compound A36 (peptide)
peptide: PKPEK([γGlu-γGlu-C19 diacid])PGEDASPKEWNRYYKDLRHYLNWLTRQRF-NH2
modifications: N-terminus assumed
SMILES: CC(C)C[C@H](NC(=O)[C@H](CC(=O)O)NC(=O)[C@H](CCCCN)NC(=O)[C@H](Cc1ccc(O)cc1)NC(=O)[C@H](Cc1ccc(O)cc1)NC(=O)[C@H](CCCNC(=N)N)NC(=O)[C@H](CC(N)=O)NC(=O)[C@H](Cc1c[nH]c2ccccc12)NC(=O)[C@H](CCC(=O)O)NC(=O)[C@H](CCCCN)NC(=O)[C@@H]1CCCN1C(=O)[C@H](CO)NC(=O)[C@H](C)NC(=O)[C@H](CC(=O)O)NC(=O)[C@H](CCC(=O)O)NC(=O)CNC(=O)[C@@H]1CCCN1C(=O)[C@H](CCCCNC(=O)CC[C@H](NC(=O)CC[C@H](NC(=O)CCCCCCCCCCCCCCCCCC(=O)O)C(=O)O)C(=O)O)NC(=O)[C@H](CCC(=O)O)NC(=O)[C@@H]1CCCN1C(=O)[C@H](CCCCN)NC(=O)[C@@H]1CCCN1)C(=O)N[C@@H](CCCNC(=N)N)C(=O)N[C@@H](Cc1c[nH]cn1)C(=O)N[C@@H](Cc1ccc(O)cc1)C(=O)N[C@@H](CC(C)C)C(=O)N[C@@H](CC(N)=O)C(=O)N[C@@H](Cc1c[nH]c2ccccc12)C(=O)N[C@@H](CC(C)C)C(=O)N[C@H](C(=O)N[C@@H](CCCNC(=N)N)C(=O)N[C@@H](CCC(N)=O)C(=O)N[C@@H](CCCNC(=N)N)C(=O)N[C@@H](Cc1ccccc1)C(N)=O)[C@@H](C)O
B3: Compound A14 (peptide)
peptide: PKPEAPGKDASPEEWNRYY[dK]([γGlu-γGlu-C20 diacid])DLRHYLNWLTRQRF-NH2
modifications: N-terminus assumed
SMILES: CC(C)C[C@H](NC(=O)[C@H](Cc1ccc(O)cc1)NC(=O)[C@H](Cc1c[nH]cn1)NC(=O)[C@H](CCCNC(=N)N)NC(=O)[C@H](CC(C)C)NC(=O)[C@H](CC(=O)O)NC(=O)[C@@H](CCCCNC(=O)CC[C@H](NC(=O)CC[C@H](NC(=O)CCCCCCCCCCCCCCCCCCC(=O)O)C(=O)O)C(=O)O)NC(=O)[C@H](Cc1ccc(O)cc1)NC(=O)[C@H](Cc1ccc(O)cc1)NC(=O)[C@H](CCCNC(=N)N)NC(=O)[C@H](CC(N)=O)NC(=O)[C@H](Cc1c[nH]c2ccccc12)NC(=O)[C@H](CCC(=O)O)NC(=O)[C@H](CCC(=O)O)NC(=O)[C@@H]1CCCN1C(=O)[C@H](CO)NC(=O)[C@H](C)NC(=O)[C@H](CC(=O)O)NC(=O)[C@H](CCCCN)NC(=O)CNC(=O)[C@@H]1CCCN1C(=O)[C@H](C)NC(=O)[C@H](CCC(=O)O)NC(=O)[C@@H]1CCCN1C(=O)[C@H](CCCCN)NC(=O)[C@@H]1CCCN1)C(=O)N[C@@H](CC(N)=O)C(=O)N[C@@H](Cc1c[nH]c2ccccc12)C(=O)N[C@@H](CC(C)C)C(=O)N[C@H](C(=O)N[C@@H](CCCNC(=N)N)C(=O)N[C@@H](CCC(N)=O)C(=O)N[C@@H](CCCNC(=N)N)C(=O)N[C@@H](Cc1ccccc1)C(N)=O)[C@@H](C)O
B4: Compound A72 (peptide)
peptide: PKPEK([γGlu-γGlu-C20 diacid])PGEDASPKEWNRYYKDLRHYLNWLTRQRF-NH2
modifications: N-terminus assumed
SMILES: CC(C)C[C@H](NC(=O)[C@H](CC(=O)O)NC(=O)[C@H](CCCCN)NC(=O)[C@H](Cc1ccc(O)cc1)NC(=O)[C@H](Cc1ccc(O)cc1)NC(=O)[C@H](CCCNC(=N)N)NC(=O)[C@H](CC(N)=O)NC(=O)[C@H](Cc1c[nH]c2ccccc12)NC(=O)[C@H](CCC(=O)O)NC(=O)[C@H](CCCCN)NC(=O)[C@@H]1CCCN1C(=O)[C@H](CO)NC(=O)[C@H](C)NC(=O)[C@H](CC(=O)O)NC(=O)[C@H](CCC(=O)O)NC(=O)CNC(=O)[C@@H]1CCCN1C(=O)[C@H](CCCCNC(=O)CC[C@H](NC(=O)CC[C@H](NC(=O)CCCCCCCCCCCCCCCCCCC(=O)O)C(=O)O)C(=O)O)NC(=O)[C@H](CCC(=O)O)NC(=O)[C@@H]1CCCN1C(=O)[C@H](CCCCN)NC(=O)[C@@H]1CCCN1)C(=O)N[C@@H](CCCNC(=N)N)C(=O)N[C@@H](Cc1c[nH]cn1)C(=O)N[C@@H](Cc1ccc(O)cc1)C(=O)N[C@@H](CC(C)C)C(=O)N[C@@H](CC(N)=O)C(=O)N[C@@H](Cc1c[nH]c2ccccc12)C(=O)N[C@@H](CC(C)C)C(=O)N[C@H](C(=O)N[C@@H](CCCNC(=N)N)C(=O)N[C@@H](CCC(N)=O)C(=O)N[C@@H](CCCNC(=N)N)C(=O)N[C@@H](Cc1ccccc1)C(N)=O)[C@@H](C)O

Assays:
Experiment in all cases: cell-based or functional assay
NPY1R = biological target: NPY1R
NPY2R = biological target: T1, NPY2R
NPY5R = biological target: T2, NPY5R

NPY1R, sequence (P25929 whole entry): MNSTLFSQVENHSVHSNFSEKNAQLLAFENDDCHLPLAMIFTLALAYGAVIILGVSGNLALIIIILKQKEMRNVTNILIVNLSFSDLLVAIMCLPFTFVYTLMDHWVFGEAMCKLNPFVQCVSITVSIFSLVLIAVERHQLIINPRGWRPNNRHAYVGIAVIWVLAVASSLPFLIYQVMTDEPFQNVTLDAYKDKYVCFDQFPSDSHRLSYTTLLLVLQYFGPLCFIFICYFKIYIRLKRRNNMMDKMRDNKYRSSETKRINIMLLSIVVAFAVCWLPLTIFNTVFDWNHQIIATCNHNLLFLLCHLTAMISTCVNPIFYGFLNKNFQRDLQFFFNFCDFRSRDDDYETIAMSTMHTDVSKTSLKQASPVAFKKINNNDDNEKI

| Binder | NPY1R pEC50 (NPY1R) | NPY2R pEC50 (NPY2R) | NPY5R pEC50 (NPY5R) |
| --- | --- | --- | --- |
| B1 | 9.1 -Log(EC50, M) | 10.4 -Log(EC50, M) | 8.9 -Log(EC50, M) |
| B2 |  | 10.9 -Log(EC50, M) | 8.7 -Log(EC50, M) |
| B3 | 8.5 -Log(EC50, M) |  | 8.3 -Log(EC50, M) |
| PKPEAPGKDASPEEWNRYY[dK]([γGlu-dpeg-dpeg-γGlu-C20 diacid])DLRHYLNWLTRQRF-NH2 [Compound A65] | 8 -Log(EC50, M) | 10.2 -Log(EC50, M) | 8.6 -Log(EC50, M) |
| B4 | 9 -Log(EC50, M) | 10.8 -Log(EC50, M) | 8.8 -Log(EC50, M) |

From patent US20250084142A1 (INTARCIA THERAPEUTICS, published 2025)
